From patent US20170022281A1 (AbbVie / Abbott, published 2017)

T1: mouse PRLR on Baf3-mPRLR cells (mouse, UniProt Q08501 20-608)
T1 construct: whole, on cells
T1 sequence (looked up): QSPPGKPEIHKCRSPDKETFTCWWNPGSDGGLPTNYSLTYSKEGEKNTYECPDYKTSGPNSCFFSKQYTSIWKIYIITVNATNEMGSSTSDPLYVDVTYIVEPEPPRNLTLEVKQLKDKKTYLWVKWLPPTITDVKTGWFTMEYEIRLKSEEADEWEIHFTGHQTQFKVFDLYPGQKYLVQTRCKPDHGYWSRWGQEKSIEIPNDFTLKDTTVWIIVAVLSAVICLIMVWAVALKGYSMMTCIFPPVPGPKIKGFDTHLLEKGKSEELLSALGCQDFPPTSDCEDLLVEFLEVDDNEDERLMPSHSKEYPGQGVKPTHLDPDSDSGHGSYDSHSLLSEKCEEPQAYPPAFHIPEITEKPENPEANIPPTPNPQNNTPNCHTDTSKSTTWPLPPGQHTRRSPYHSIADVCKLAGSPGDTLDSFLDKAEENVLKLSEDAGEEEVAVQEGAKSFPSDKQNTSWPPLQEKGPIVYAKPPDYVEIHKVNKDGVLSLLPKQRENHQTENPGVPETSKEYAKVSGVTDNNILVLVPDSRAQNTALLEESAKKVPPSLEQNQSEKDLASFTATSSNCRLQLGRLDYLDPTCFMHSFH

T2: human PRLR (Biacore antigen) (human, UniProt P16471 25-234, limits assumed)
T2 construct: The construct injected over captured antibody is not described (a soluble form is likely); also called huPRLR
T2 sequence: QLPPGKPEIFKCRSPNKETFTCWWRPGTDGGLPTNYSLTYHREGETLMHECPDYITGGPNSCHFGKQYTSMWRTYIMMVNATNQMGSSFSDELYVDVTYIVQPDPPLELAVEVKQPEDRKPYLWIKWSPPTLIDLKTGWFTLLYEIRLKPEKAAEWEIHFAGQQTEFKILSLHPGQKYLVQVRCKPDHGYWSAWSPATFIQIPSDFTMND


target: T1, mouse PRLR on Baf3-mPRLR cells; test: FACS Baf3-mPRLR 10 ug/mL
Protocol: Nb2-11 and Baf3-xPRLR cells were resuspended in FACS buffer (PBS+1% FBS) at 2 millions cells/mL. Cells were added to round bottom 96-well plate (100 uL/well) and treated with testing PRLR antibodies for 1 hr at 4 C. Cells were then washed with FACS buffer twice and incubated with 2nd antibody conjugated to ALEXA488 (Invitrogen) for 1 hr at 4 C. After two washes in FACS buffer, cells were resuspended in 1% formaldehyde in PBS. Cells were analyzed using LSRII flowcytometer.

Binder | FACS GeoMean-neg
LFA102 (antibody, human IgG1, kappa, V domains shown, humanized IgG1 kappa comparator (WO 2008022295)) VH: EVQLVESGGGLVQPGGSLRLSCAVSGFTFSSYGMSWVRQAPGKRLEWVATVSSGGTYTYYPDSVKGRFTISRDNSKNTLYLQMNSLRAEDTAMYYCARHRGNYYATYYYAMDYWGQGTLVTVSS VL: DIVLTQSPDSLAVSLGERATINCKASKSVSTSGYTYMHWYQQKPGQPPKLLIYLASNRESGVPDRFSGSGSGTDFTLTISPVQAEDVATYYCQHSGELPPSFGQGTKLEIKR | 4
Ab10 (antibody, V domains shown, murine monoclonal, isotype G2a; also called murine Ab10) VH: EVQLHQSGPELVKPGASVKISCKASGYTFTDYNMHWMKQSHGKSLEWIGYFYPYNGGTGYNQEFKNKATLTVDISSSTAYMELRRLTSEDSAVYYCARGGWGIYYAMDYWGQGTSVTVSS VL: DIQMTQSPASLSASVGETVTITCRASENIYSYLTWYQQKQGKSPQLLVYNAKTLAEGVPSRFSGSGSGTQFSLKINSLQPEDFGSYHCQHHSVTPLTFGAGTKLELK | 49
Ab12 (antibody, V domains shown, murine monoclonal, isotype G2a; reported as PRLR agonist; also called murine Ab12) VH: DVQLQESGPGLVKPSQSLSLTCTVTGYSITSDYAWNWIRQFPGNKLEWMGYIGYSGRTSFNPSLKSRISITRDTSKNQFFLQLNSVTTEDTATYYCARGGFAMDYWGQGTSVTVSS VL: QIVLTQSPGIMSASPGEKVTMTCSASSSVTYMYWYQQKPRSSPKPWIYLTSNLASGVPARFSGSGSGTSYSLTISSMEAEDGATYYCQQWSSTPPLTFGGGTKLELN | 90
Ab5 (antibody, V domains shown, murine monoclonal, isotype G2a; also called murine Ab5) VH: QVQLQQPGAELVRPGTSVKLSCKASGYTFTSFWMHWVKQRPGQGLEWIGVIDPSDTYTNYNQKFKGKATLTVDTSSSTAYMQLSSLTSEDSAVYYCARGDYSNWFTYWGQGTLVTVSA VL: DVVMTQTPLSLPVSLGDQASISCRSSQRLVHSNGNTYLHWYLQKPGQSPKLLIYKVSNRFSGVPDRFSGSGSGTDFTLKISRVEAEDLGVYFCSQSTHVPWTFGGGTKLEIK | 166
Ab11 (antibody, V domains shown, murine monoclonal, isotype G1; also called murine Ab11) VH: EVKLVESGGGLVQPGGSLKLSCAASGFTFSDYYMFWVRQTPEKSLEWVAYISNGGGSTYYPDTVKGRFTISRDNAKNTLYLQMSRLKSEDTAMYYCSRQLFYYGSRGAMGYWGQGTSVTVSS VL: DVLMTQTPLSLPVSLGDQASISCRSSQSIVHSNGNTYLEWYLQKPGQSPKLLIYKVSNRFSGVPDRFSGSGSGTDFTLKISRVEAEDLGVYYCFQGSHVPFTFGSGTKLEIK | 25
Ab7 (antibody, V domains shown, murine monoclonal, isotype G1; also called murine Ab7) VH: QVQLQQPGAELVMPGTSVKLSCKASGYTFTSYWIHWVKQRPGQGLEWIGEIDPSDSYTNYNQKFKGKATLTVDRSSSTAYMQLSSLTSEDSAVYYCGRSFFTNWFAYWGQGTLVTVSA VL: DVVMTQTPLSLPVSLGDQASISCRSSQSLVHSNGNTYLHWYLQKPGQSPKLLIYKVSNRFSGVPDRFSGSGSGTDFTLKINRVEAEDLGVYFCSQSTHVPFTFGSGTKLEIK | 27
Ab13 (antibody, V domains shown, murine monoclonal, isotype G2a; also called murine Ab13) VH: QVQLQQPGAELVRPGTSVKLSCKASGYTFTSFWMHWVKQRPGQGLEWIGVIDPSDSHTNYNQKFKGKATLTVNTSSSTAYMHLSSLTSEDSAVYYCARGDYSNWFTYWGQGTLVTVSA VL: DVVMTQTPFSLPVSLGDQASISCRSSQSLVHSNGNTYLHWYLQKPGQSPKLLIYKVSNRFSGVPDRFSGSGSGTDFTLKISRVEAEDLELYFCSQSTHVPWTFGGGTKLEIK | 143
Ab6 (antibody, V domains shown, murine monoclonal, isotype G1; also called murine Ab6) VH: QVQLQQPGAELVMPGSSVKLSCKASGYTFTTYWMHWVKQRPGQGLEWIGEIDPSDSYSNYNQKFKDKATLTVDKSSSTAYMQLSSLTSEDSAVYYCARNGGLGPAWFSYWGQGTLVTVSA VL: DIVMTQSQKFMSTTVGDRVSITCKASQYVGTAVAWYQQKPGQSPKLLIYSASNRYTGVPDRFTDSGSGTDFTLTISNLQSEDLADYFCQQYSSYPWTFGGGTKLEIK | 0

target: T2, human PRLR (Biacore antigen); test: SPR Biacore

Binder | fold decrease in affinity against chAb7 [fold]
Ab39 (antibody, human IgG1, kappa, V domains shown, humanized from Ab7; G1; also called Ab4 HC.1a and Ab4 LC.1a) VH: EVQLVQSGAEVKKPGSSVKVSCKASGYTFTSYWIHWVRQAPGQGLEWIGEIDPSDSYTNYNQKFKGRATLTVDKSSSTAYMELSSLRSEDTAVYYCARSFFTNWFAYWGQGTLVTVSS VL: DVVMTQTPLSLSVTPGQPASISCRSSQSLVHSNGNTYLHWYLQKPGQSPQLLIYKVSNRFSGVPDRFSGSGSGTDFTLKISRVEAEDVGVYFCSQSTHVPFTFGGGTKVEIKR | ~22
